# Source: patent US20240043563A1
# Where a chain is given by its changes, count along the chain named.
# B1: humanized anti-human MASP-2 monoclonal antibody 100-Hu (antibody, human IgG4 S228P, kappa, V domains shown)
# VH: QVQLVESGGGVVQPGGSLRLSCAASGFTFSNFGIHWVRQAPGKGLEWVAYISSGGSAVFYADTVKGRFTISRDNSKNTLYLQMNSLRAEDTAVYYCAKSDRYFDYWGQGTTVTVSS
# VL: EIVLTQSPATLSLSPGERATLSCRASQSVSSSSYRYIHWYQQKPGQAPRLLIYYASNLESGIPARFSGSGSGTDFTLTISSLEPEDFAVYYCQHSWETPWTFGQGTKLEIKR
# B2: humanized anti-human MASP-2 monoclonal antibody 124-Hu (antibody, human IgG4 S228P, kappa, V domains shown)
# VH: QVQLQESGPGLVKPSQTLSLTCTVSGYSITSDYAWNWIRQPPGKGLEWMGYISYSGRTSYNPSLKSRLTISRDTSKNQFSLKLSSVTAADTAVYYCARHYGDFWGQGTTVTVSS
# VL: DIQMTQSPSSLSASVGDRVTITCKASQNVDTNVAWYQQKPGKAPKLLIYSASYRYSGVPSRFSGSGSGTDFTLTISSLQPEDFATYYCQQYNSYPSTFGQGTKLEIKR
# B3: humanized anti-human MASP-2 monoclonal antibody 126-Hu (antibody, human IgG4 S228P, kappa, V domains shown)
# VH: QVQLVESGGGVVQPGRSLRLSCAASGFTFSSFGMHWVRQAPGKGLEWVAYISSGSSSSFYVDTVKGRFTISRDNSKNTLYLQMNSLRAEDTAVYYCARGDRNFEVWGQGTTVTVSS
# VL: DIQMTQSPSSLSASVGDRVTITCRASQSVSSSRYSYMHWFQQKPGKAPKLLIYHASNLESGVPSRFSGSGSGTDFTLTISSLQPEDFATYYCQQSWEVPWTFGQGTKLEIKR
# B4: humanized anti-human MASP-2 monoclonal antibody 136-Hu (antibody, human IgG4 S228P, kappa, V domains shown)
# VH: QVQLVQSGAEVKKPGASVKVSCKASGNTFTNYWMHWIRQAPGQGLEWMGYINPNTGYTDFNQKFKDRVTLTADKSTSTAYMELSSLRSEDTAVYYCTLQLGRNFDYWGQGTTVTVSS
# VL: B3 VL with Y34S, S35T, M37I, F40Y, H54Y, A55S, Q93H, V98I, W100Y
# B5: murine anti-human MASP-2 monoclonal antibody 100 (antibody, V domains shown)
# VH: B1 VH with Q1D, V11L, L18R, R19K, G42E, Y80F, N84T, A88S, V93I, V112L
# VL: DIVLTQSPASLAVSLGQRATISCRASQSVSSSSYRYIHWYQQKPGQPPRLLIKYASNLESGVPARFSGSGSGTDFTLNIHPVEEEDTATYYCQHSWETPWTFGGGTKLEIK
# B6: murine anti-human MASP-2 monoclonal antibody 120 (antibody, V domains shown)
# VH: DVQLQESGPGLVKPSQSLSLTCTVTGYSITSDYAWSWIRQFLRNKLEWMGYISYSGRTSYNPSLKSRISITRDTSKNQFFLQLNSVTTEDTATYFCARLITGGDYWGQGTSVTVSS
# VL: DIVMTQSQKFMSTSVGDRVSVTCKASQNVGINVVWYQQKPGQSPKALIYSASYRFSGVPDRFTGSGSGTDFTLTISNVQSEDLAEYLCLQYDINPLTFGAGTKLELK
# B7: murine anti-human MASP-2 monoclonal antibody 136 (antibody, V domains shown)
# VH: QVQLQQSGAELAKPGASVKMSCKASGNTFTNYWMHWIKQRPGQGLEWVGYINPNTGYTDFNQKFKDKATLTADKSSTTAYMQLISLTSEDSTVYYCTLQLGRNFDYWGQGTTLTVSS
# VL: DIVLTQSPASLGVSLGQRATISCRASQSVSSSRSTYIHWYQQKPGQPPKLLIKYSSNLESGVPARFSGGGSGTDFTLNIHPVEAEDTATYYCHQSWEIPYTFGGGTKLEIR
# B8: murine anti-human MASP-2 monoclonal antibody 60 (antibody, V domains shown)
# VH: QVQLQQSGAELMKPGASVKISCKATGYPFSTYWIEWVKQRPGHGLEWIGEILPGSDNTNYNEKFKGKATFTADTSSNTAYMQLSSLTSEDSAVYYCARRTTATRAWFVYWGQGTLVTVSA
# VL: DIVMSQSPSSLAVSVGEKVTMSCKSSQSLLYSSNQKNYLAWYQQKPGQSPKLLIYWASTRESGVPDRFTGSGSGTDFTLTISSVRAEDLAVYYCQHYYTYPWTFGGGTNLEIK
# B9: murine anti-human MASP-2 monoclonal antibody 115 (antibody, V domains shown)
# VH: DVQLVESGGGLVQPGGSRKLSCAASGFTFSSFGMHWVRQAPEKGLEWVAYISSGSSSFFYADTVKGRFTISRDNPKNTLFLQMTSLRSEDTAMYYCARGDRNFDVWGAGTTVTVSS
# VL: B5 VL with S30T, S33R, R35S, I37M, Y40F, R49N, Y54H, E85D, T98V
# B10: murine anti-human MASP-2 monoclonal antibody 126 (antibody, V domains shown)
# VH: B9 VH with A23V, F58S, A61V, D104E
# VL: B5 VL with S33R, R35S, I37M, Y40F, R49N, Y54H, H94Q, T98V
# B11: murine anti-human MASP-2 monoclonal antibody 124 (antibody, V domains shown)
# VH: DVQLQESGPGLVKPSQSLSLTCTVTGYSITSDYAWNWIRQFPGNKLEWMGYISYSGRTSYNPSLKSRLSITRDTSKNQFFLQLTSVTTEDTATYYCARHYGDFWGQGTTLTVSS
# VL: DIVMTQSQKFMSTSVGDRVSVTCKASQNVDTNVAWFQQKPGQSPKPLIYSASYRYSGVPDRFTGSGSGTDFTLTISNVQSEDLANYFCQQYNSYPSTFGSGTKLEIK
# Molecular target: MASP-2-CCS-Flag (human) (UniProt O00187)
# Sequence (O00187 other isoform, or with tags, fused parts or gaps limits assumed, form in doubt): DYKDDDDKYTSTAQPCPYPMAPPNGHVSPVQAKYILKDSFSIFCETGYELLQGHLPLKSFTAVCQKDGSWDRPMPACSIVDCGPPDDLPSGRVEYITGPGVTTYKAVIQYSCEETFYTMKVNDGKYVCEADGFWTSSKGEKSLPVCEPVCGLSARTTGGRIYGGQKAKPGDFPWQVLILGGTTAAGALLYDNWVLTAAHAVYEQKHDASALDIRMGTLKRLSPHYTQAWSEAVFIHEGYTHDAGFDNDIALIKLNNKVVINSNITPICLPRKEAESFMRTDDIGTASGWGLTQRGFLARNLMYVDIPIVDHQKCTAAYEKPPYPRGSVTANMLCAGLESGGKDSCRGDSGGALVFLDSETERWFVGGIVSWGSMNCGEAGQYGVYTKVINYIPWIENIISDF
# Test: SPR, Biacore T200, antibody captured on Protein A chip, MASP-2-CCS-Flag as analyte
Binder,Kd,koff,kon,fold affinity against the reference antibody Narsoplimab
B1,0.701 nM,0.000298 s⁻¹,428000 M⁻¹ s⁻¹,
B2,0.35 nM,0.000582 s⁻¹,1.66e+06 M⁻¹ s⁻¹,25 times
B3,0.148 nM,6.33e-05 s⁻¹,428000 M⁻¹ s⁻¹,60 times
B4,0.998 nM,0.000589 s⁻¹,590000 M⁻¹ s⁻¹,

# Molecular target: Fc-hMASP-2A-CCS (human) [IgG part: P01857]
# Sequence (P01857 other isoform, or with tags, fused parts or gaps limits assumed, form in doubt): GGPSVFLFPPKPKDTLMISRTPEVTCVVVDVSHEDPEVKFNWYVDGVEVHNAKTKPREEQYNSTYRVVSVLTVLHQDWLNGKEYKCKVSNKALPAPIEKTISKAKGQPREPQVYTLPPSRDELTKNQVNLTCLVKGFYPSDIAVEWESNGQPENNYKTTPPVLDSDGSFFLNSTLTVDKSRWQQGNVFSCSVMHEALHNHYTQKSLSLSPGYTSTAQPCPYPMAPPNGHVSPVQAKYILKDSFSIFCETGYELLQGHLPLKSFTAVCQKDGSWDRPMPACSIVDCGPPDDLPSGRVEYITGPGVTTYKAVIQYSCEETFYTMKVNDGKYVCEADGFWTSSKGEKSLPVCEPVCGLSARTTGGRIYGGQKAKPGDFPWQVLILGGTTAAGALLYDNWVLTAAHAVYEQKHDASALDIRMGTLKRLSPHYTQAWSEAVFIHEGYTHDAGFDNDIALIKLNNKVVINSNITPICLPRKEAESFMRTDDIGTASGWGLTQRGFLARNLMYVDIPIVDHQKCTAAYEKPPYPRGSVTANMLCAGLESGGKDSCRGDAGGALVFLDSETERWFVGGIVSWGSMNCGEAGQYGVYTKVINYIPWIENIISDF
# Test: ELISA according to Example 5, plate coated with Fc-hMASP-2A-CCS
row,Binder,EC50
1,B1,0.297 nM
2,B2,0.25 nM
3,B3,0.246 nM
4,B4,0.26 nM

# Molecular target: Fc-hMASP-2A-CCS (human) [IgG part: P01857]
# Test: ELISA, plate coated with 1 ug/mL Fc-hMASP-2A-CCS
row,Binder,EC50
1,B5,0.173 nM
2,B6,0.16 nM
3,B7,0.143 nM
4,B8,0.149 nM
5,B9,0.151 nM
6,B10,0.161 nM
7,B11,0.182 nM
